# Results reported in US20260242478A1 (published 2026).
# Where no end group is shown, it is not given here.
# B1: Phage-1177 (peptide)
# peptide: YCEGHAEQYMKKCL
# modifications: cysteine pairing not given here; also: displayed on phage by fusion to pIII, linker and pIII sequence not given here
# notes: Clonal phage of the Peptide-87 library; not shown: fused to the pIII filament of the bacteriophage
# B2: Phage-1174 (peptide)
# peptide: YCEGHLYEYMWKCL
# modifications: cysteine pairing not given here; also: displayed on phage by fusion to pIII, linker and pIII sequence not given here
# notes: as for B1
# B3: Phage-1179 (peptide)
# peptide: YCAGHLPQYMHKCL
# modifications: cysteine pairing not given here; also: displayed on phage by fusion to pIII, linker and pIII sequence not given here
# notes: as for B1
# B4: Phage-1178 (peptide)
# peptide: YCDGHVVEYMSKCL
# modifications: cysteine pairing not given here; also: displayed on phage by fusion to pIII, linker and pIII sequence not given here
# notes: as for B1
# B5: Phage-1181 (peptide)
# peptide: YCEGHSSLYLEKCL
# modifications: cysteine pairing not given here; also: displayed on phage by fusion to pIII, linker and pIII sequence not given here
# notes: as for B1
# B6: Phage-1175 (peptide)
# peptide: YCVGHSEQYMAKCL
# modifications: cysteine pairing not given here; also: displayed on phage by fusion to pIII, linker and pIII sequence not given here
# notes: as for B1
# B7: Phage-1176 (peptide)
# peptide: YCDGHEAEYMWKCL
# modifications: cysteine pairing not given here; also: displayed on phage by fusion to pIII, linker and pIII sequence not given here
# notes: as for B1
# B8: Phage-1180 (peptide)
# peptide: YCDGHIWPWIEKCL
# modifications: cysteine pairing not given here; also: displayed on phage by fusion to pIII, linker and pIII sequence not given here
# notes: as for B1
# B9: Phage-1197 (peptide)
# peptide: YCEGHLWEYMKKCL
# modifications: cysteine pairing not given here; also: displayed on phage by fusion to pIII, linker and pIII sequence not given here
# B10: Phage-1199 (peptide)
# peptide: YCEGHSSEYLGKCL
# modifications: cysteine pairing not given here; also: displayed on phage by fusion to pIII, linker and pIII sequence not given here
# B11: Phage-1198 (peptide)
# peptide: YCEGHDVQYMQKCL
# modifications: cysteine pairing not given here; also: displayed on phage by fusion to pIII, linker and pIII sequence not given here
# B12: Phage-1202 (peptide)
# peptide: YCEGHLPSYLAKCL
# modifications: cysteine pairing not given here; also: displayed on phage by fusion to pIII, linker and pIII sequence not given here
# B13: Phage-1195 (peptide)
# peptide: YCEGHIPAYMAKCL
# modifications: cysteine pairing not given here; also: displayed on phage by fusion to pIII, linker and pIII sequence not given here
# B14: Phage-1203 (peptide)
# peptide: YCDGHAPEFIRKCL
# modifications: cysteine pairing not given here; also: displayed on phage by fusion to pIII, linker and pIII sequence not given here
# B15: Phage-1196 (peptide)
# peptide: YCDGHAPIYMQKCL
# modifications: cysteine pairing not given here; also: displayed on phage by fusion to pIII, linker and pIII sequence not given here
# B16: Phage-1201 (peptide)
# peptide: YCDGHSSAYIDKCL
# modifications: cysteine pairing not given here; also: displayed on phage by fusion to pIII, linker and pIII sequence not given here
# B17: Phage-1200 (peptide)
# peptide: YCDGHLPRYMEKCM
# modifications: cysteine pairing not given here; also: displayed on phage by fusion to pIII, linker and pIII sequence not given here
# B18: Phage-1204 (peptide)
# peptide: YCEGHAPQYMSKCL
# modifications: cysteine pairing not given here; also: displayed on phage by fusion to pIII, linker and pIII sequence not given here
# Target: T1, Anti-CD28 Fab (SEQ ID NOs: 696, 697)
# T1 construct: Biotinylated and captured on neutravidin coated plates in the phage ELISA
# Assay: clonal phage ELISA; biotinylated anti-CD28 Fab on neutravidin plate, bound phage detected with anti-M13 HRP
# T1 sequence (VH, as listed by the source, chain 1 of 2): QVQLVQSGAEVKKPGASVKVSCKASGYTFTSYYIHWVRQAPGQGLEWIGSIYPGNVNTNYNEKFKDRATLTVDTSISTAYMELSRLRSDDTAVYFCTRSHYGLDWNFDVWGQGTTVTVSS
# T1 sequence (VL, as listed by the source, chain 2 of 2): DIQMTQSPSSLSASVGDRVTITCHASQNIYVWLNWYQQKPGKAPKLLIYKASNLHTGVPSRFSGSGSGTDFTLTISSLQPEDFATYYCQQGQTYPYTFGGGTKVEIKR
# Procedure: (§1) After panning, phage infected bacteria were plated out and colonies picked into 96 well blocks. Clonal phage was then amplified and separated from bacterial cells via centrifugation.
# (§2) Clonal phage were harvested as crude supematants and screened via standard ELISAs. […] Prior to the addition of clonal phage, wells were incubated with blocking buffer and CD28 antigen or blocking buffer alone. Without washing or aspirating, clonal phage supematants were then added to the wells and incubated for a short time. Wells were then washed followed by detection of bound phage using a horse radish conjugated anti-M13 antibody. Clonal phage of interest were then sent for sequence analysis.
row,Binder,"Phage binding ELISA, Anti-CD28 Fab signal"
1,YCEGHSEMYMSKCL [Phage-1190],1.07
2,YCDGHSFHYMAKCL [Phage-1189],1.08
3,YCEGHLWEYLAKCL [Phage-1183],1.1
4,YCEGHMGEYMLKCL [Phage-1184],1.1
5,YCDGHAKVYIWKCL [Phage-1194],1.06
6,YCAGHAEEYMLKCL [Phage-1186],1.09
7,YCDGHANAYIWKCL [Phage-1191],1.07
8,YCVGHLPEYMLECM [Phage-1188],1.08
9,YCDGHTKEYMWKCL [Phage-1185],1.1
10,YCEGHAQEYMAKCL [Phage-1193],1.06
11,YCEGHSAEYIGKCL [Phage-1187],1.08
12,YCEGHIPMYMLKCM [Phage-1192],1.06
13,YCDGHAMEYMEKCL [Phage-1182],1.11

# Target: T1, Anti-CD28 Fab (SEQ ID NOs: 696, 697)
# Assay: clonal phage ELISA on captured anti-CD28 Fab; wells pre-incubated with CD28 antigen as competitor
# Procedure: as §1, §2
row,Binder,"Phage binding ELISA, Anti-CD28 Fab signal in the presence of CD28"
1,YCEGHSEMYMSKCL [Phage-1190],0.09
2,YCDGHSFHYMAKCL [Phage-1189],0.06
3,YCEGHLWEYLAKCL [Phage-1183],0.05
4,YCEGHMGEYMLKCL [Phage-1184],0.06
5,YCDGHAKVYIWKCL [Phage-1194],0.08
6,YCAGHAEEYMLKCL [Phage-1186],0.07
7,YCDGHANAYIWKCL [Phage-1191],0.09
8,YCVGHLPEYMLECM [Phage-1188],0.07
9,YCDGHTKEYMWKCL [Phage-1185],0.06
10,YCEGHAQEYMAKCL [Phage-1193],0.08
11,YCEGHSAEYIGKCL [Phage-1187],0.07
12,YCEGHIPMYMLKCM [Phage-1192],0.09
13,YCDGHAMEYMEKCL [Phage-1182],0.08

# Target: Anti-CD28 Fab (SEQ ID NOs: 696, 697)
# Assay: phage binding ELISA; biotinylated anti-CD28 Fab on neutravidin plate, clonal phage supernatant, anti-M13 HRP;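 further: crude clonal phage supernatants screened after wells were preincubated either with CD28 antigen in blocking buffer or with blocking buffer only, phage added without washing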
# Target sequence in this assay (VH, as listed by the source, chain 1 of 2): as the sequence (VH, as listed by the source, chain 1 of 2) above
# Target sequence in this assay (VL, as listed by the source, chain 2 of 2): as the sequence (VL, as listed by the source, chain 2 of 2) above
# Procedure: as §1, §2
row,Binder,"Anti-CD28 Fab (SEQ ID NOs: 696, 697) signal"
1,B1,1.12
2,B2,1.13
3,B3,1.11
4,B4,1.12
5,B5,1.11
6,B6,1.13
7,B7,1.13
8,B8,1.11

# Target: T2, Anti-CD28 Fab (SEQ ID NOs: 696, 697)
# T2 construct: In the phage ELISA the Fab was biotinylated and captured on neutravidin coated plates
# Assay: phage ELISA; captured anti-CD28 Fab pre-incubated with CD28 antigen as competitor, anti-M13 HRP;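 further: crude clonal phage supernatants added without washing after CD28 pre-incubation, bound phage detected with HRP anti-M13 antibody, reference wells got blocking buffer lacking CD28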
# T2 sequence (VH, as listed by the source, chain 1 of 2): as the sequence (VH, as listed by the source, chain 1 of 2) above
# T2 sequence (VL, as listed by the source, chain 2 of 2): as the sequence (VL, as listed by the source, chain 2 of 2) above
# Procedure: as §1, §2
row,Binder,Anti-CD28 Fab signal in the presence of CD28 (phage binding ELISA)
1,B9,0.07
2,B10,0.09
3,B11,0.08
4,B12,0.06
5,B13,0.08
6,B14,0.07
7,B15,0.06
8,B16,0.06
9,B17,0.06
10,B18,0.08

# Target: T2, Anti-CD28 Fab (SEQ ID NOs: 696, 697)
# Assay: phage ELISA; biotinylated anti-CD28 Fab on neutravidin plate, clonal phage supernatant, anti-M13 HRP
row,Binder,Anti-CD28 Fab signal (phage binding ELISA)
1,B9,1.06
2,B10,1.05
3,B11,1.06
4,B12,1.05
5,B13,1.06
6,B14,1.05
7,B15,1.06
8,B16,1.05
9,B17,1.05
10,B18,1.04

# Target: Anti-CD28 Fab (SEQ ID NOs: 696, 697)
# Assay: phage binding ELISA on captured anti-CD28 Fab; competitor CD28 antigen pre-incubated in the wells
# Target sequence in this assay (VH, as listed by the source, chain 1 of 2): as the sequence (VH, as listed by the source, chain 1 of 2) above
# Target sequence in this assay (VL, as listed by the source, chain 2 of 2): as the sequence (VL, as listed by the source, chain 2 of 2) above
# Procedure: as §1, §2
row,Binder,Anti-CD28 Fab signal in the presence of CD28
1,B1,0.07
2,B2,0.07
3,B3,0.08
4,B4,0.08
5,B5,0.08
6,B6,0.06
7,B7,0.1
8,B8,0.11
